T1: FcγRIIa R extracellular domain with C-terminal His tag (human, UniProt P12318 34-217)
T1 construct: extracellular domain; also called FcgRIIa R; 2aR; not shown: His tag at the C terminus
T1 sequence (looked up): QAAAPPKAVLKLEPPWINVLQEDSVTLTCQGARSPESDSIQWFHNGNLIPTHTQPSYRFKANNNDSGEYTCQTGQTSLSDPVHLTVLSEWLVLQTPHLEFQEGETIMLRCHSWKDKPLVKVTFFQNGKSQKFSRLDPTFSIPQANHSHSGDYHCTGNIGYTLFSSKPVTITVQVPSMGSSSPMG


What follows are binders tested against T1, FcγRIIa R extracellular domain with … (assay: SPR (Biacore), relative FcγRIIa R binding, GpH7-B3/GpL16-k0 = 100).
Procedure: Analysis of interaction between objective antibody and the FcγR was carried out using Biacore T100 (GE Healthcare). HBS-EP+ (GE Healthcare) was used as the running buffer, and the measurement temperature was set to 25° C. Chips produced by immobilizing the antigen peptide by the amine coupling method to a Series S Sencor Chip CM5 (GE Healthcare), or alternatively, chips produced by allowing preliminarily biotinylated antigen peptides to interact with and immobilize onto a Series S Sensor Chip SA (certified) (GE Healthcare) were used. Antibodies of interest were captured onto an antigen peptide-immobilized chip, and allowed to interact to each FcγR diluted with running buffer. To regenerate and repeatedly use the chip, the antibodies captured on the chip were washed off by reacting 10 mM glycine-HCl, pH 1.5.

Binder | Ho/Con_2aR
GpH7-B3 variant K334_13S/GpL16-k0 (antibody, human IgG1, kappa, homodimerized: alteration in both H chains; also called Ho Ab K334_13S) heavy: not shown light: DIVMTQSPLSLPVTPGEPASISCQASESLVHSNRNTYLHWYLQKPGQSPQLLIYKVSNRFSGVPDRFSGSGSGTDFTLKISRVEAEDVGVYYCSQNTHVPPTFGQGTKVEIERTVAAPSVFIFPPSDEQLKSGTASVVCLLNNFYPREAKVQWKVDNALQSGNSQESVTEQDSKDSTYSLSSTLTLSKADYEKHKVYACEVTHQGLSSPVTKSFNRGEC | 106 % of control
GpH7-B3 variant K334_19Q/GpL16-k0 (antibody, human IgG1, kappa, homodimerized: alteration in both H chains; also called Ho Ab K334_19Q) heavy: not shown light: DIVMTQSPLSLPVTPGEPASISCQASESLVHSNRNTYLHWYLQKPGQSPQLLIYKVSNRFSGVPDRFSGSGSGTDFTLKISRVEAEDVGVYYCSQNTHVPPTFGQGTKVEIERTVAAPSVFIFPPSDEQLKSGTASVVCLLNNFYPREAKVQWKVDNALQSGNSQESVTEQDSKDSTYSLSSTLTLSKADYEKHKVYACEVTHQGLSSPVTKSFNRGEC | 108 % of control
GpH7-B3 variant L328_14T/GpL16-k0 (antibody, human IgG1, kappa, homodimerized: alteration in both H chains; also called Ho Ab L328_14T) heavy: not shown light: DIVMTQSPLSLPVTPGEPASISCQASESLVHSNRNTYLHWYLQKPGQSPQLLIYKVSNRFSGVPDRFSGSGSGTDFTLKISRVEAEDVGVYYCSQNTHVPPTFGQGTKVEIERTVAAPSVFIFPPSDEQLKSGTASVVCLLNNFYPREAKVQWKVDNALQSGNSQESVTEQDSKDSTYSLSSTLTLSKADYEKHKVYACEVTHQGLSSPVTKSFNRGEC | 118 % of control
GpH7-B3 variant P271_08L/GpL16-k0 (antibody, human IgG1, kappa, homodimerized: alteration in both H chains; also called Ho Ab P271_08L) heavy: not shown light: DIVMTQSPLSLPVTPGEPASISCQASESLVHSNRNTYLHWYLQKPGQSPQLLIYKVSNRFSGVPDRFSGSGSGTDFTLKISRVEAEDVGVYYCSQNTHVPPTFGQGTKVEIERTVAAPSVFIFPPSDEQLKSGTASVVCLLNNFYPREAKVQWKVDNALQSGNSQESVTEQDSKDSTYSLSSTLTLSKADYEKHKVYACEVTHQGLSSPVTKSFNRGEC | 102 % of control
GpH7-B3 variant P238_04F/GpL16-k0 (antibody, human IgG1, kappa, homodimerized: alteration in both H chains; also called Ho Ab P238_04F) heavy: not shown light: DIVMTQSPLSLPVTPGEPASISCQASESLVHSNRNTYLHWYLQKPGQSPQLLIYKVSNRFSGVPDRFSGSGSGTDFTLKISRVEAEDVGVYYCSQNTHVPPTFGQGTKVEIERTVAAPSVFIFPPSDEQLKSGTASVVCLLNNFYPREAKVQWKVDNALQSGNSQESVTEQDSKDSTYSLSSTLTLSKADYEKHKVYACEVTHQGLSSPVTKSFNRGEC | 146 % of control
GpH7-B3 variant P238_03V/GpL16-k0 (antibody, human IgG1, kappa, homodimerized: alteration in both H chains; also called Ho Ab P238_03V) heavy: not shown light: DIVMTQSPLSLPVTPGEPASISCQASESLVHSNRNTYLHWYLQKPGQSPQLLIYKVSNRFSGVPDRFSGSGSGTDFTLKISRVEAEDVGVYYCSQNTHVPPTFGQGTKVEIERTVAAPSVFIFPPSDEQLKSGTASVVCLLNNFYPREAKVQWKVDNALQSGNSQESVTEQDSKDSTYSLSSTLTLSKADYEKHKVYACEVTHQGLSSPVTKSFNRGEC | 116 % of control
GpH7-B3 variant L235_20W/GpL16-k0 (antibody, human IgG1, kappa, homodimerized: alteration in both H chains; also called Ho Ab L235_20W) heavy: not shown light: DIVMTQSPLSLPVTPGEPASISCQASESLVHSNRNTYLHWYLQKPGQSPQLLIYKVSNRFSGVPDRFSGSGSGTDFTLKISRVEAEDVGVYYCSQNTHVPPTFGQGTKVEIERTVAAPSVFIFPPSDEQLKSGTASVVCLLNNFYPREAKVQWKVDNALQSGNSQESVTEQDSKDSTYSLSSTLTLSKADYEKHKVYACEVTHQGLSSPVTKSFNRGEC | 114 % of control
GpH7-B3 variant P331_02A/GpL16-k0 (antibody, human IgG1, kappa, homodimerized: alteration in both H chains; also called Ho Ab P331_02A) heavy: not shown light: DIVMTQSPLSLPVTPGEPASISCQASESLVHSNRNTYLHWYLQKPGQSPQLLIYKVSNRFSGVPDRFSGSGSGTDFTLKISRVEAEDVGVYYCSQNTHVPPTFGQGTKVEIERTVAAPSVFIFPPSDEQLKSGTASVVCLLNNFYPREAKVQWKVDNALQSGNSQESVTEQDSKDSTYSLSSTLTLSKADYEKHKVYACEVTHQGLSSPVTKSFNRGEC | 102 % of control
GpH7-B3 variant L328_13S/GpL16-k0 (antibody, human IgG1, kappa, homodimerized: alteration in both H chains; also called Ho Ab L328_13S) heavy: not shown light: DIVMTQSPLSLPVTPGEPASISCQASESLVHSNRNTYLHWYLQKPGQSPQLLIYKVSNRFSGVPDRFSGSGSGTDFTLKISRVEAEDVGVYYCSQNTHVPPTFGQGTKVEIERTVAAPSVFIFPPSDEQLKSGTASVVCLLNNFYPREAKVQWKVDNALQSGNSQESVTEQDSKDSTYSLSSTLTLSKADYEKHKVYACEVTHQGLSSPVTKSFNRGEC | 108 % of control

The remaining lines, values ahead:

Ho/Con_2aR | Binder
106 % of control | GpH7-B3 variant S239_08L/GpL16-k0 (antibody, human IgG1, kappa, homodimerized: alteration in both H chains; also called Ho Ab S239_08L) heavy: not shown light: DIVMTQSPLSLPVTPGEPASISCQASESLVHSNRNTYLHWYLQKPGQSPQLLIYKVSNRFSGVPDRFSGSGSGTDFTLKISRVEAEDVGVYYCSQNTHVPPTFGQGTKVEIERTVAAPSVFIFPPSDEQLKSGTASVVCLLNNFYPREAKVQWKVDNALQSGNSQESVTEQDSKDSTYSLSSTLTLSKADYEKHKVYACEVTHQGLSSPVTKSFNRGEC
102 % of control | GpH7-B3 variant P331_20W/GpL16-k0 (antibody, human IgG1, kappa, homodimerized: alteration in both H chains; also called Ho Ab P331_20W) heavy: not shown light: DIVMTQSPLSLPVTPGEPASISCQASESLVHSNRNTYLHWYLQKPGQSPQLLIYKVSNRFSGVPDRFSGSGSGTDFTLKISRVEAEDVGVYYCSQNTHVPPTFGQGTKVEIERTVAAPSVFIFPPSDEQLKSGTASVVCLLNNFYPREAKVQWKVDNALQSGNSQESVTEQDSKDSTYSLSSTLTLSKADYEKHKVYACEVTHQGLSSPVTKSFNRGEC
106 % of control | GpH7-B3 variant P331_04F/GpL16-k0 (antibody, human IgG1, kappa, homodimerized: alteration in both H chains; also called Ho Ab P331_04F) heavy: not shown light: DIVMTQSPLSLPVTPGEPASISCQASESLVHSNRNTYLHWYLQKPGQSPQLLIYKVSNRFSGVPDRFSGSGSGTDFTLKISRVEAEDVGVYYCSQNTHVPPTFGQGTKVEIERTVAAPSVFIFPPSDEQLKSGTASVVCLLNNFYPREAKVQWKVDNALQSGNSQESVTEQDSKDSTYSLSSTLTLSKADYEKHKVYACEVTHQGLSSPVTKSFNRGEC
101 % of control | GpH7-B3 variant S298_08L/GpL16-k0 (antibody, human IgG1, kappa, homodimerized: alteration in both H chains; also called Ho Ab S298_08L) heavy: not shown light: DIVMTQSPLSLPVTPGEPASISCQASESLVHSNRNTYLHWYLQKPGQSPQLLIYKVSNRFSGVPDRFSGSGSGTDFTLKISRVEAEDVGVYYCSQNTHVPPTFGQGTKVEIERTVAAPSVFIFPPSDEQLKSGTASVVCLLNNFYPREAKVQWKVDNALQSGNSQESVTEQDSKDSTYSLSSTLTLSKADYEKHKVYACEVTHQGLSSPVTKSFNRGEC
102 % of control | GpH7-B3 variant S267_06M/GpL16-k0 (antibody, human IgG1, kappa, homodimerized: alteration in both H chains; also called Ho Ab S267_06M) heavy: not shown light: DIVMTQSPLSLPVTPGEPASISCQASESLVHSNRNTYLHWYLQKPGQSPQLLIYKVSNRFSGVPDRFSGSGSGTDFTLKISRVEAEDVGVYYCSQNTHVPPTFGQGTKVEIERTVAAPSVFIFPPSDEQLKSGTASVVCLLNNFYPREAKVQWKVDNALQSGNSQESVTEQDSKDSTYSLSSTLTLSKADYEKHKVYACEVTHQGLSSPVTKSFNRGEC
100 % of control | GpH7-B3 variant P331_16H/GpL16-k0 (antibody, human IgG1, kappa, homodimerized: alteration in both H chains; also called Ho Ab P331_16H) heavy: not shown light: DIVMTQSPLSLPVTPGEPASISCQASESLVHSNRNTYLHWYLQKPGQSPQLLIYKVSNRFSGVPDRFSGSGSGTDFTLKISRVEAEDVGVYYCSQNTHVPPTFGQGTKVEIERTVAAPSVFIFPPSDEQLKSGTASVVCLLNNFYPREAKVQWKVDNALQSGNSQESVTEQDSKDSTYSLSSTLTLSKADYEKHKVYACEVTHQGLSSPVTKSFNRGEC
167 % of control | GpH7-B3 variant S267_09D/GpL16-k0 (antibody, human IgG1, kappa, homodimerized: alteration in both H chains; also called Ho Ab S267_09D) heavy: not shown light: DIVMTQSPLSLPVTPGEPASISCQASESLVHSNRNTYLHWYLQKPGQSPQLLIYKVSNRFSGVPDRFSGSGSGTDFTLKISRVEAEDVGVYYCSQNTHVPPTFGQGTKVEIERTVAAPSVFIFPPSDEQLKSGTASVVCLLNNFYPREAKVQWKVDNALQSGNSQESVTEQDSKDSTYSLSSTLTLSKADYEKHKVYACEVTHQGLSSPVTKSFNRGEC
110 % of control | GpH7-B3 variant S267_19Q/GpL16-k0 (antibody, human IgG1, kappa, homodimerized: alteration in both H chains; also called Ho Ab S267_19Q) heavy: not shown light: DIVMTQSPLSLPVTPGEPASISCQASESLVHSNRNTYLHWYLQKPGQSPQLLIYKVSNRFSGVPDRFSGSGSGTDFTLKISRVEAEDVGVYYCSQNTHVPPTFGQGTKVEIERTVAAPSVFIFPPSDEQLKSGTASVVCLLNNFYPREAKVQWKVDNALQSGNSQESVTEQDSKDSTYSLSSTLTLSKADYEKHKVYACEVTHQGLSSPVTKSFNRGEC
115 % of control | GpH7-B3 variant S267_03V/GpL16-k0 (antibody, human IgG1, kappa, homodimerized: alteration in both H chains; also called Ho Ab S267_03V) heavy: not shown light: DIVMTQSPLSLPVTPGEPASISCQASESLVHSNRNTYLHWYLQKPGQSPQLLIYKVSNRFSGVPDRFSGSGSGTDFTLKISRVEAEDVGVYYCSQNTHVPPTFGQGTKVEIERTVAAPSVFIFPPSDEQLKSGTASVVCLLNNFYPREAKVQWKVDNALQSGNSQESVTEQDSKDSTYSLSSTLTLSKADYEKHKVYACEVTHQGLSSPVTKSFNRGEC
103 % of control | GpH7-B3 variant S239_18N/GpL16-k0 (antibody, human IgG1, kappa, homodimerized: alteration in both H chains; also called Ho Ab S239_18N) heavy: not shown light: DIVMTQSPLSLPVTPGEPASISCQASESLVHSNRNTYLHWYLQKPGQSPQLLIYKVSNRFSGVPDRFSGSGSGTDFTLKISRVEAEDVGVYYCSQNTHVPPTFGQGTKVEIERTVAAPSVFIFPPSDEQLKSGTASVVCLLNNFYPREAKVQWKVDNALQSGNSQESVTEQDSKDSTYSLSSTLTLSKADYEKHKVYACEVTHQGLSSPVTKSFNRGEC
105 % of control | GpH7-B3 variant P331_15Y/GpL16-k0 (antibody, human IgG1, kappa, homodimerized: alteration in both H chains; also called Ho Ab P331_15Y) heavy: not shown light: DIVMTQSPLSLPVTPGEPASISCQASESLVHSNRNTYLHWYLQKPGQSPQLLIYKVSNRFSGVPDRFSGSGSGTDFTLKISRVEAEDVGVYYCSQNTHVPPTFGQGTKVEIERTVAAPSVFIFPPSDEQLKSGTASVVCLLNNFYPREAKVQWKVDNALQSGNSQESVTEQDSKDSTYSLSSTLTLSKADYEKHKVYACEVTHQGLSSPVTKSFNRGEC
122 % of control | GpH7-B3 variant S239_10E/GpL16-k0 (antibody, human IgG1, kappa, homodimerized: alteration in both H chains; also called Ho Ab S239_10E) heavy: not shown light: DIVMTQSPLSLPVTPGEPASISCQASESLVHSNRNTYLHWYLQKPGQSPQLLIYKVSNRFSGVPDRFSGSGSGTDFTLKISRVEAEDVGVYYCSQNTHVPPTFGQGTKVEIERTVAAPSVFIFPPSDEQLKSGTASVVCLLNNFYPREAKVQWKVDNALQSGNSQESVTEQDSKDSTYSLSSTLTLSKADYEKHKVYACEVTHQGLSSPVTKSFNRGEC
